These results are taken from IntAct's records for PubMed 25910212.

To fix the notation:
B1: Hepatocyte nuclear factor 4-alpha (Homo sapiens), P41235-3 (parent)
chain: MRLSKTLVDMDMADYSAALDPAYTTLEFENVQVLTMGNDTSPSEGTNLNAPNSLGVSALCAICGDRATGKHYGASSCDGCKGFFRRSVRKNHMYSCRFSRQCVVDKDKRNQCRYCRLKKCFRAGMKKEAVQNERDRISTRRSSYEDSSLPSINALLQAEVLSRQITSPVSGINGDIRAKKIASIADVCESMKEQLLVLVEWAKYIPAFCELPLDDQVALLRAHAGEHLLLGATKRSMVFKDVLLLGNDYIVPRHCPELAEMSRVSIRILDELVLPFQELQIDDNEYAYLKAIIFFDPDAKGLSDPGKIKRLRSQVQVSLEDYINDRQYDSRGRFGELLLLLPTLQSITWQMIEQIQFIKLFGMAKIDNLLQEMLLGGPCQAQEGRGWSGDSPGDRPHTVSSPLSSLASPLCRFGQVA
B2: Interferon-inducible double-stranded RNA-dependent protein kinase activator A (Homo sapiens), O75569 (parent)
chain: MSQSRHRAEAPPLEREDSGTFSLGKMITAKPGKTPIQVLHEYGMKTKNIPVYECERSDVQIHVPTFTFRVTVGDITCTGEGTSKKLAKHRAAEAAINILKANASICFAVPDPLMPDPSKQPKNQLNPIGSLQELAIHHGWRLPEYTLSQEGGPAHKREYTTICRLESFMETGKGASKKQAKRNAAEKFLAKFSNISPENHISLTNVVGHSLGCTWHSLRNSPGEKINLLKRSLLSIPNTDYIQLLSEIAKEQGFNITYLDIDELSANGQYQCLAELSTSPITVCHGSGISCGNAQSDAAHNALQYLKIIAERK
partner: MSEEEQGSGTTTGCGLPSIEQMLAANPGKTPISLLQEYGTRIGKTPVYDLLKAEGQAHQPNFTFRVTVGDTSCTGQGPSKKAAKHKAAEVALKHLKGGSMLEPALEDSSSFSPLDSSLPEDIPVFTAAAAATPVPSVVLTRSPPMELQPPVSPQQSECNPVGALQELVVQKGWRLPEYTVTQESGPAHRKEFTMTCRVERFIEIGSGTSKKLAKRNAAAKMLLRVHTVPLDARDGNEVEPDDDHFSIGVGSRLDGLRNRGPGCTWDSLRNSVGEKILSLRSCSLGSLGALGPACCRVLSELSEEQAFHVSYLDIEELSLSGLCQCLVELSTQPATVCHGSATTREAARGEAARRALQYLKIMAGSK
B3: Acetylcholine receptor subunit gamma (Homo sapiens), P07510-2 (parent)
chain: MHGGQGPLLLLLLLAVCLGAQGRNQEERLLADLMQNYDPNLRPAERDSDVVNVSLKLTLTNLISLNEREEALTTNVWIEMQWCDYRLRWDPRDYEGLWVLRVPSTMVWRPDIVLENKSQTYSTNEIDLQLSQEDGQTIEWIFIDPEAFTENGEWAIQHRPAKMLLDPAAPAQEAGHQKVVFYLLIQRKPLFYVINIIAPCVLISSVAILIHFLPAKAGGQKCTVAINVLLAQTVFLFLVAKKVPETSQAVPLISKYLTFLLVVTILIVVNAVVVLNVSLRSPHTHSMARGVRKVFLRLLPQLLRMHVRPLAPAAVQDTQSRLQNGSSGWSITTGEEVALCLPRSELLFQQWQRQGLVAAALEKLEKGPELGLSQFCGSLKQAAPAIQACVEACNLIACARHQQSHFDNGNEEWFLVGRVLDRVCFLAMLSLFICGTAGIFLMAHYNRVPALPFPGDPRPYLPSPD
B4: Tribbles homolog 3 (Homo sapiens), Q96RU7 (parent)
chain: MRATPLAAPAGSLSRKKRLELDDNLDTERPVQKRARSGPQPRLPPCLLPLSPPTAPDRATAVATASRLGPYVLLEPEEGGRAYQALHCPTGTEYTCKVYPVQEALAVLEPYARLPPHKHVARPTEVLAGTQLLYAFFTRTHGDMHSLVRSRHRIPEPEAAVLFRQMATALAHCHQHGLVLRDLKLCRFVFADRERKKLVLENLEDSCVLTGPDDSLWDKHACPAYVGPEILSSRASYSGKAADVWSLGVALFTMLAGHYPFQDSEPVLLFGKIRRGAYALPAGLSAPARCLVRCLLRREPAERLTATGILLHPWLRQDPMPLAPTRSHLWEAAQVVPDGLGLDEAREEEGDREVVLYG
B5: SWI/SNF-related matrix-associated actin-dependent regulator of chromatin subfamily A member 2 (Homo sapiens), P51531-1 (parent)
chain: MSTPTDPGAMPHPGPSPGPGPSPGPILGPSPGPGPSPGSVHSMMGPSPGPPSVSHPMPTMGSTDFPQEGMHQMHKPIDGIHDKGIVEDIHCGSMKGTGMRPPHPGMGPPQSPMDQHSQGYMSPHPSPLGAPEHVSSPMSGGGPTPPQMPPSQPGALIPGDPQAMSQPNRGPSPFSPVQLHQLRAQILAYKMLARGQPLPETLQLAVQGKRTLPGLQQQQQQQQQQQQQQQQQQQQQQQPQQQPPQPQTQQQQQPALVNYNRPSGPGPELSGPSTPQKLPVPAPGGRPSPAPPAAAQPPAAAVPGPSVPQPAPGQPSPVLQLQQKQSRISPIQKPQGLDPVEILQEREYRLQARIAHRIQELENLPGSLPPDLRTKATVELKALRLLNFQRQLRQEVVACMRRDTTLETALNSKAYKRSKRQTLREARMTEKLEKQQKIEQERKRRQKHQEYLNSILQHAKDFKEYHRSVAGKIQKLSKAVATWHANTEREQKKETERIEKERMRRLMAEDEEGYRKLIDQKKDRRLAYLLQQTDEYVANLTNLVWEHKQAQAAKEKKKRRRRKKKAEENAEGGESALGPDGEPIDESSQMSDLPVKVTHTETGKVLFGPEAPKASQLDAWLEMNPGYEVAPRSDSEESDSDYEEEDEEEESSRQETEEKILLDPNSEEVSEKDAKQIIETAKQDVDDEYSMQYSARGSQSYYTVAHAISERVEKQSALLINGTLKHYQLQGLEWMVSLYNNNLNGILADEMGLGKTIQTIALITYLMEHKRLNGPYLIIVPLSTLSNWTYEFDKWAPSVVKISYKGTPAMRRSLVPQLRSGKFNVLLTTYEYIIKDKHILAKIRWKYMIVDEGHRMKNHHCKLTQVLNTHYVAPRRILLTGTPLQNKLPELWALLNFLLPTIFKSCSTFEQWFNAPFAMTGERVDLNEEETILIIRRLHKVLRPFLLRRLKKEVESQLPEKVEYVIKCDMSALQKILYRHMQAKGILLTDGSEKDKKGKGGAKTLMNTIMQLRKICNHPYMFQHIEESFAEHLGYSNGVINGAELYRASGKFELLDRILPKLRATNHRVLLFCQMTSLMTIMEDYFAFRNFLYLRLDGTTKSEDRAALLKKFNEPGSQYFIFLLSTRAGGLGLNLQAADTVVIFDSDWNPHQDLQAQDRAHRIGQQNEVRVLRLCTVNSVEEKILAAAKYKLNVDQKVIQAGMFDQKSSSHERRAFLQAILEHEEENEEEDEVPDDETLNQMIARREEEFDLFMRMDMDRRREDARNPKRKPRLMEEDELPSWIIKDDAEVERLTCEEEEEKIFGRGSRQRRDVDYSDALTEKQWLRAIEDGNLEEMEEEVRLKKRKRRRNVDKDPAKEDVEKAKKRRGRPPAEKLSPNPPKLTKQMNAIIDTVINYKDRCNVEKVPSNSQLEIEGNSSGRQLSEVFIQLPSRKELPEYYELIRKPVDFKKIKERIRNHKYRSLGDLEKDVMLLCHNAQTFNLEGSQIYEDSIVLQSVFKSARQKIAKEEESEDESNEEEEEEDEEESESEAKSVKVKIKLNKKDDKGRDKGKGKKRPNRGKAKPVVSDFDSDEEQDEREQSEGSGTDDE
B6: Meiotic recombination protein DMC1/LIM15 homolog (Homo sapiens), Q14565 (parent)
chain: MKEDQVVAEEPGFQDEEESLFQDIDLLQKHGINVADIKKLKSVGICTIKGIQMTTRRALCNVKGLSEAKVDKIKEAANKLIEPGFLTAFEYSEKRKMVFHITTGSQEFDKLLGGGIESMAITEAFGEFRTGKTQLSHTLCVTAQLPGAGGYPGGKIIFIDTENTFRPDRLRDIADRFNVDHDAVLDNVLYARAYTSEHQMELLDYVAAKFHEEAGIFKLLIIDSIMALFRVDFSGRGELAERQQKLAQMLSRLQKISEEYNVAVFVTNQMTADPGATMTFQADPKKPIGGHILAHASTTRISLRKGRGELRIAKIYDSPEMPENEATFAITAGGIGDAKE
partner: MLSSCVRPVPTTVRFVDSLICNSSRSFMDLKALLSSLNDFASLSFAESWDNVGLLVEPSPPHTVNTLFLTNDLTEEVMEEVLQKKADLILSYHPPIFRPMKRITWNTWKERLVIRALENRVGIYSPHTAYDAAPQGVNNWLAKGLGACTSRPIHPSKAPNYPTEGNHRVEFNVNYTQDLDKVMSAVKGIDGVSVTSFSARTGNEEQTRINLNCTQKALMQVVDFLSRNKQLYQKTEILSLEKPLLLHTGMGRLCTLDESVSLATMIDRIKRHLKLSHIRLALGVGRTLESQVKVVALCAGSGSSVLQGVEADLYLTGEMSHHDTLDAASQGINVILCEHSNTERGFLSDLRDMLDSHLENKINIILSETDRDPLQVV

In one assay the parent is B1. The note with it: with plpp2_human PLPP2, O43688.
Sequence of plpp2_human PLPP2, O43688 (O43688 whole entry, looked up): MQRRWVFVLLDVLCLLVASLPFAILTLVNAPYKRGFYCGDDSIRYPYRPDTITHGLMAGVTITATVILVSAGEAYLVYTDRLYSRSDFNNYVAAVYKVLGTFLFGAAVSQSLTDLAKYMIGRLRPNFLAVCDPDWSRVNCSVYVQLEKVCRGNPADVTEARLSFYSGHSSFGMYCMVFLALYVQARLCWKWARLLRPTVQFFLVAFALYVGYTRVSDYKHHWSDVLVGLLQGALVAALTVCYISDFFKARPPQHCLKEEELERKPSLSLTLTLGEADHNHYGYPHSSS
With C102W, the “effect of a mutation on the interaction” value is given as “disrupting interaction strength”.

In another assay the parent is B1. The note with it: with if1ay_human EIF1AY.
On to C102W, for which the “effect of a mutation on the interaction” value is on record as “disrupting interaction strength”.

The variants in another assay derive from B1. The note with it: with dmd_human DMD.
Take C102W: the “effect of a mutation on the interaction” value was “disrupting interaction strength”.

In a further assay the parent is B2. The note with it: with trbp2_human TARBP2, Q15633.
Regarding P222L, the “effect of a mutation on the interaction” value was “with no effect”.

In another assay the parent is B3. The note with it: with mdfi_human MDFI.
Target sequence in this assay (Q99750 whole entry): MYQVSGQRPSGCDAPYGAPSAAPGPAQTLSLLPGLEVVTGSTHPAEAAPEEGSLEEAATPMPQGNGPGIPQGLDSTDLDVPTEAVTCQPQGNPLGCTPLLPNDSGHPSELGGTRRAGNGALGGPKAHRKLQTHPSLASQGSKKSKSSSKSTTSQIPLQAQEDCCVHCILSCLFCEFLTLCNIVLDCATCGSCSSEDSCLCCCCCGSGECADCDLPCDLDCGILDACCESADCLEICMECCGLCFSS
Take R187C: the “effect of a mutation on the interaction” value is “disrupting interaction strength”.
The same measure, in the same setting: in the case of R86C it was “disrupting interaction strength”.
Still for that read-out and setting: in the case of V107G it was “disrupting interaction strength”.

In another assay the parent is B3. The note with it: with nt2na_human NOTCH2NLA.
For the variant R187C, the “effect of a mutation on the interaction” value is listed as “disrupting interaction strength”.
On the same count and under the same terms, to R86C belongs “disrupting interaction strength”.
The same measure, in the same setting: in the case of V107G it was “disrupting interaction strength”.

The variants in another assay derive from B3. The note with it: with k1h1_human KRT31, Q15323.
Sequence of k1h1_human KRT31, Q15323 (Q15323 whole entry): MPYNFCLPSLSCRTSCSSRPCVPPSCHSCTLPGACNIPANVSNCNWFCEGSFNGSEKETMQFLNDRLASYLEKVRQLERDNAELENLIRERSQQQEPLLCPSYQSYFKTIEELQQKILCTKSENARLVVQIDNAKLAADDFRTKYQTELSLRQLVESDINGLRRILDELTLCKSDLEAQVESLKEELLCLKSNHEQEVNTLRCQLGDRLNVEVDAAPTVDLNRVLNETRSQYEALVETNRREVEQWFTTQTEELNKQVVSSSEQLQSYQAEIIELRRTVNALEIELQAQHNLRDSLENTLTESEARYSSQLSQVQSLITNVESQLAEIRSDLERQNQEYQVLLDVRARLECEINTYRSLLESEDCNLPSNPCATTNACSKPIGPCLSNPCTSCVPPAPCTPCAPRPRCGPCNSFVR
On to R187C, for which the “effect of a mutation on the interaction” value is reported as “disrupting interaction strength”.
Turning to R86C, the “effect of a mutation on the interaction” value is “disrupting interaction strength”.
Still for that read-out and setting: to V107G belongs “disrupting interaction strength”.

Variants of B3 are the subject of the next assay. The note with it: with meox2_human MEOX2, P50222.
Sequence of meox2_human MEOX2, P50222 (P50222 whole entry): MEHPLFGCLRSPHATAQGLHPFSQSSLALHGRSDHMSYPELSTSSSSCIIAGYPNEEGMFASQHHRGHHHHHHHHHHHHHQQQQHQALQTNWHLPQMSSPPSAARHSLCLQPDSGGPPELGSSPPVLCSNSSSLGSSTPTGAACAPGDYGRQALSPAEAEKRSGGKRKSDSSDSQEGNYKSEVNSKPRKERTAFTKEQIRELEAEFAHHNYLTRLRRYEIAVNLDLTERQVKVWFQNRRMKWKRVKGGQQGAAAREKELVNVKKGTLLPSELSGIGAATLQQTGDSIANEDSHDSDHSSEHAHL
As for R187C, the “effect of a mutation on the interaction” value is “disrupting interaction strength”.
On the same count and under the same terms, in the case of R86C it was “disrupting interaction strength”; in that of V107G, “disrupting interaction strength”.

Another assay covers variants of B4. The note with it: with atf4_human ATF4, P18848.
Sequence of atf4_human ATF4, P18848 (P18848 whole entry): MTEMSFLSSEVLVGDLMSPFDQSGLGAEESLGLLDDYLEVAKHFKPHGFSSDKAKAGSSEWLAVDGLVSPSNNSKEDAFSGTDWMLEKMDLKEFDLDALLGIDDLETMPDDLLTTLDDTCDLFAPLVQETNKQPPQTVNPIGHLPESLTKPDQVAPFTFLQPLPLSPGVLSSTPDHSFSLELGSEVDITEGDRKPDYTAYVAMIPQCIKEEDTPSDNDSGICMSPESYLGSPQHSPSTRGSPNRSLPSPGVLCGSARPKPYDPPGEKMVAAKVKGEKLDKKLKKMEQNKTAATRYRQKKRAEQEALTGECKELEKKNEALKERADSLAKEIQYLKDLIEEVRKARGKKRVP
Regarding Q84R, the “effect of a mutation on the interaction” value is recorded as “with no effect”.

In a further assay the parent is B4. The note with it: with mdfi_human MDFI.
Target sequence in this assay (Q99750 whole entry): as the sequence (Q99750 whole entry) above
Take Q84R: the “effect of a mutation on the interaction” value is listed as “with no effect”.

The variants in a further assay derive from B5. The note with it: with sdcb1_human SDCBP.
With D1546E, the “effect of a mutation on the interaction” value is given as “with no effect”.

In the next assay the parent is B5. The note with it: with sdcb1_human SDCBP. The source holds these as a separate data set.
On to D1546E, for which the “effect of a mutation on the interaction” value was “with no effect”.

In another assay the parent is B6. The note with it: with nif3l_human NIF3L1, Q9GZT8.
Turning to M200V, the “effect of a mutation on the interaction” value is given as “disrupting interaction strength”.
